The results in this text go back to the nanobody polyreactivity screen of Harvey et al. (2022).

The data set in a line: yeast display, Sf9 membrane polyspecificity reagent, FACS + sequencing; frameworks hold sequencing errors. The method, boiled down: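 Galactose-induced (36–48 hours) yeast carrying a synthetic nanobody display library were exposed to 10% biotinylated, detergent-solubilized Sf9 membrane reagent at 4 °C for 1 hour. FACS followed streptavidin microbead enrichment, using low and high (top ~1%) gates for expression (anti-HA) and reagent binding (streptavidin). Colony PCR, MiSeq 2 × 250 sequencing and CDR-length filtering followed. Labels for polyreactivity reflect the gate of origin.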
In the case of “QVQLVESGGGLVQAGGSLRLSCAASGIIFAYYAMGWYRQAPGKERELVGTNYADSVKGRFTISRDNAKNTVYLQMNSLKPEDTAVYYCAADFLYYSSGGKMDYWGQGTQVTVSS”, the “polyreactivity (PSR sort gate)” value was “low polyreactivity”.

Consider “QVQLVESGGGLVQAGGSLRLSCAASGIIFCRYAMGWYRQAPGKERELVATITWRGGSTYYADSVKGRFTISRDNAKNTVYLQMNSLKPEDTAVYYCAADTRQSRSFRARDYWGQGTQVTVSS”, for which the “polyreactivity (PSR sort gate)” value is reported as “low polyreactivity”.

With “QVQLVESGGGLVQAGGSLRLSCAASGIIFDDYALGWYRPAPGKVRELVAAINSNGGTTYYADSVKGRFTISRDNAKNTVYLQMNSLKPEDTAVYYCAARPYRIGRYGYDYDYWGQGTQVTVSS”, the “polyreactivity (PSR sort gate)” value is on record as “high polyreactivity”.

Take “QVQLVESGGGLVQAGGSLRLSCAASGIIFDEYAMGWYRQAPGKEMELVAGITIGGSTNYADSVKGRLTISRDNAKNTVYLQMNSLKPEDTAVYYCDYLGQGTQVTVSS”: the “polyreactivity (PSR sort gate)” value is given as “low polyreactivity”.

With “QVQLVESGGGLVQAGGSLRLSCAASGIIFDFYAMGWYRQAPGKEWELVAAITVSGGSTYYADSVKGRFTISRDNAKNTVYLQMNSLKPEDTAVYYCAAVGDWYVSYYEMDYWGQGTQVTVSS”, the “polyreactivity (PSR sort gate)” value is recorded as “low polyreactivity”.

Take “QVQLVESGGGLVQAGGSLRLSCAASGIIFDGNAMGWYRQAPGKERELVAAISSGGSTNYADSVKGRFTISRDNAKNTVYLQMNSLKPEDTAVYYCAARYTGKYEREYIYWGQGTQVTVSS”: the “polyreactivity (PSR sort gate)” value is “high polyreactivity”.

In the case of “QVQLVESGGGLVQAGGSLRLSCAASGIIFDINAMGWYRQAPGKERELVAAITTSVDSTYYADSVKGRFTISRDNAKNTVYLQMNSLKPEDTAVYYCAAGPGDSGDDYWGQGTQVTVSS”, the “polyreactivity (PSR sort gate)” value was “low polyreactivity”.

On to “QVQLVESGGGLVQAGGSLRLSCAASGIIFDRYAMGWYRQAPGKERELVAAITYGGGSTYYADSVKGRFTISRDNAKNTVYLQMNSLKPEDTAVYYCAAVSTWFYQYYYWGQGTQVTVSS”, for which the “polyreactivity (PSR sort gate)” value is listed as “high polyreactivity”.

Consider “QVQLVESGGGLVQAGGSLRLSCAASGIIFDTNAMGWYRQAPGKERELVATITQRGGTTYYADSVKGRFTISRDNAKNTVYLQMNSLKPEDTAVYYCNAGPVRLPYDSWGQGTQVTVSS”, for which the “polyreactivity (PSR sort gate)” value is “low polyreactivity”.

Consider “QVQLVESGGGLVQAGGSLRLSCAASGIIFDWYAMGWYRQAPGKERELVAAISDSGDTTYYADSVKGRFTISRDNAKNTVYLQMNSLKPEDTAVYYCNARVIGIYGYWGQGTQVTVSS”, for which the “polyreactivity (PSR sort gate)” value was “high polyreactivity”.

As to “QVQLVESGGGLVQAGGSLRLSCAASGIIFDYYAMGWYRPAPGKERELVAAINSGSGSTYYADSVKGRFTISRDNAKNTVYLQMNSLKPEDTAVYYCAADGLSATLTWYSYDYWGQGTQVTVSS”, the “polyreactivity (PSR sort gate)” value is “low polyreactivity”.

“QVQLVESGGGLVQAGGSLRLSCAASGIIFEGYAMGWYRQAPGKERELVATITSGGITYYADSVKGRFTISRDNAKNTVYLQMNSLKPEDTAVYYCAADNEDIGSEDSDYGYDYWGQGTQVTVSS”: the “polyreactivity (PSR sort gate)” value is “low polyreactivity”.

As for “QVQLVESGGGLVQAGGSLRLSCAASGIIFERNAMGWYRQAPGKERELVAAITTSGDSTYYADSVKGRFTISRDNAKNTVYLQMNSLKPEDTAVYYCAVEGVIWSFWPYEYWGQGTQVTVSS”, the “polyreactivity (PSR sort gate)” value was “high polyreactivity”.

On to “QVQLVESGGGLVQAGGSLRLSCAASGIIFEYYAMGWYRQAPGKERELVASITSSDGSTYYADSVKGRFTISRDNAKNTVYLQMNSLKPEDTAVYYCAAAGDYVVPISSTAGFGGDYWGQGTQVTVSS”, for which the “polyreactivity (PSR sort gate)” value is “low polyreactivity”.

With “QVQLVESGGGLVQAGGSLRLSCAASGIIFFDYAMGWYRQAPGKERELVAAISSGGGNTYYADSVKGRFTISRDNAKNTVYLQMNSLNPEDTAVDYCAAEPYIYGEQGAYDYWGQGTQVTVSS”, the “polyreactivity (PSR sort gate)” value is listed as “low polyreactivity”.

Turning to “QVQLVESGGGLVQAGGSLRLSCAASGIIFFPYAMGWYRQAPGKEREFVAAITSRGGSTYYADSVKGRFTISRDNAKNTVYLQMNSLKPEDTAVYYCAADHLGRARGPWRYNYWGQGTQVTVSS”, the “polyreactivity (PSR sort gate)” value is reported as “low polyreactivity”.

With “QVQLVESGGGLVQAGGSLRLSCAASGIIFFPYPMGWYRQAPGKERELVASINISDSSTYYADSVKGRFTISRDTAKNTVDLQMNSLKPEDTAVYYCAADNRGDSWYWHGYWGQGTQVSVSS”, the “polyreactivity (PSR sort gate)” value was “low polyreactivity”.

As for “QVQLVESGGGLVQAGGSLRLSCAASGIIFFWNAMGWYRQAPGKERELVAAISSGGSTFADSVKGRFTISRDNAKNTVYLQMNSLKPEDTAVYYCAARFYHGYRPYIAIYGYGYWGQGTQVTVSS”, the “polyreactivity (PSR sort gate)” value is listed as “low polyreactivity”.

Turning to “QVQLVESGGGLVQAGGSLRLSCAASGIIFGAYAMGLYRQAPGQERVFVAAISRSGSRTYYADSVKGRFTISRDTAKNTVYLQMNSLKPEDTAVYYCAAESPVLYYWGQGTQVTVSS”, the “polyreactivity (PSR sort gate)” value is given as “high polyreactivity”.

For “QVQLVESGGGLVQAGGSLRLSCAASGIIFGGNVMGWYRQAPGKERELVAAITWSGGTTYYADSVKGRFTISRDNAKNTVFLQMNSLKPEDTAVYYCAADRVYLDYVAGTYDYWGQGTQVTVSS”, the “polyreactivity (PSR sort gate)” value was “low polyreactivity”.

“QVQLVESGGGLVQAGGSLRLSCAASGIIFGGYAMGWYGQAPGKERELVASITWGGGSTYYADSVKGRFTISRDNAKNTVYLQMNSLKPEDTAVYYCNKRGYPGSDWGQGTQVTVSS”: the “polyreactivity (PSR sort gate)” value is reported as “low polyreactivity”.

On to “QVQLVESGGGLVQAGGSLRLSCAASGIIFGGYAMGWYRQAPGKERELVAAITRSGGSTYYADSVKGRFTISRDNAKNTVYLQMNSLKPEDTAVYYCAAVPYRKHSYPFRLNYWGQGTQVTVSS”, for which the “polyreactivity (PSR sort gate)” value is listed as “high polyreactivity”.

For “QVQLVESGGGLVQAGGSLRLSCAASGIIFGGYDMGWYRQATGKERELVAAISWSGGSTYYADSVKGRFTISRDTAKNTVYLQMNSLKPEDTAVYYCAAAYYAPTRDYYYWGQGTQVTVSS”, the “polyreactivity (PSR sort gate)” value is recorded as “low polyreactivity”.

Regarding “QVQLVESGGGLVQAGGSLRLSCAASGIIFGPNAMGWYRQAPGKERELVAGIDWSTDSTYYADSVKGRFTLSRDNAKNTVYLQMNSLKPEDTAVYYCAVAENKRFGSVGYYYWGQGTQVTVSS”, the “polyreactivity (PSR sort gate)” value is given as “low polyreactivity”.

With “QVQLVESGGGLVQAGGSLRLSCAASGIIFGQNALGWYRQAPGKEREVVAAITISGGSTYYSDSVKGRFTISRDNAKNTVYLQMNSLKPEDTAVYYCAAEWYYVYIAPYDYWGQGTQVTVSS”, the “polyreactivity (PSR sort gate)” value is listed as “low polyreactivity”.

Regarding “QVQLVESGGGLVQAGGSLRLSCAASGIIFGRYAMGWYRQATGTVRELVAASTRSGGRTYYADTVKGRFTISRDYAKNTVFVQMNSLKPEDTAVYYCSADASGHSYDYWGQGTQVTVSS”, the “polyreactivity (PSR sort gate)” value was “high polyreactivity”.

Consider “QVQLVESGGGLVQAGGSLRLSCAASGIIFGRYAMGWYRQSPGKERELVAAISSRGGSTYYADSVKGRFTISRDNAKNTVYLQMNSLKPEDTAVYYCAATWGYLRGSTNYYYWGQGTQVTVSS”, for which the “polyreactivity (PSR sort gate)” value is recorded as “high polyreactivity”.

As to “QVQLVESGGGLVQAGGSLRLSCAASGIIFGSNAMGWYRQAPGKERELVAAISYSGASTYYADSVKGRFTISRDNAKNTVYLQMNSLKPEDTAVYYCATYSRWDYGYWGQGTQVTVSS”, the “polyreactivity (PSR sort gate)” value was “high polyreactivity”.

Turning to “QVQLVESGGGLVQAGGSLRLSCAASGIIFGSNTMGWYRQAPGKERELVAAITSSDGSTHYADSVKGRFTISRDNAKNTVYLQMKSLKPEDTAVYYCAARKVTYGHSYGYDYWGQGTQVTLSS”, the “polyreactivity (PSR sort gate)” value is reported as “low polyreactivity”.

In the case of “QVQLVESGGGLVQAGGSLRLSCAASGIIFGSYAIGWYRQAPGKERELVAGISRRGDSTYYADSVKGRFTISRDNAKNTVYLQMNSLKPEDTAVYYCAARWFRRSTYLYYYWGQGTQVTVSS”, the “polyreactivity (PSR sort gate)” value is “high polyreactivity”.

Turning to “QVQLVESGGGLVQAGGSLRLSCAASGIIFGSYAMGWSRQAPGKERELVAAISYSGSTFYADSVKGRFTISRDNAKNTVYLQMNSLKPEDTAVYYCNADRYAKWYRKYRPNDYWGQGTQVTVSS”, the “polyreactivity (PSR sort gate)” value is “high polyreactivity”.

As for “QVQLVESGGGLVQAGGSLRLSCAASGIIFGTNAMGWSRQAPGKERELVAAITWSGGTYYADSVKGRFTISRDNAKNTVYLQMNSLKPEDTAVYYCAADGSGYYDWYYYWGQGTQVTVSS”, the “polyreactivity (PSR sort gate)” value is recorded as “low polyreactivity”.

Take “QVQLVESGGGLVQAGGSLRLSCAASGIIFGTNAMGWYRQAPGKERELVAAIRVTGGSTYYADSVKGRFTISRDNAKNTVYLQMNSLKPEDTAVYYCARDSWFVVDMDYWGQGTQVTVSS”: the “polyreactivity (PSR sort gate)” value is listed as “low polyreactivity”.

With “QVQLVESGGGLVQAGGSLRLSCAASGIIFGTYAMGWYRQAPGKERELVAAINWSGGSTYYADSVKGRFTISRDNAKNTVYLQMNSLKPEDTAVYYCAADGNEYDYWGQGTQVTVSS”, the “polyreactivity (PSR sort gate)” value is listed as “low polyreactivity”.

For the sequence “QVQLVESGGGLVQAGGSLRLSCAASGIIFGVYAMGWYRQAPGKERELVAAIDGNGSSTYYADSVKGRFISSRDNAKTTVYLQMNSLKPEDTAVYYCAADLVWVSTSYYYWGQGTQVTVSS”, the “polyreactivity (PSR sort gate)” value is “low polyreactivity”.

With “QVQLVESGGGLVQAGGSLRLSCAASGIIFGVYAMGWYRQAPGKERELVADISSGDSTNYADSVKGRFTISRANAKNTVYLQMNSLKPEDTAVYYCAAEFGRMYWRYGYWGQGTQVTVSS”, the “polyreactivity (PSR sort gate)” value is given as “low polyreactivity”.

Turning to “QVQLVESGGGLVQAGGSLRLSCAASGIIFGYNVMGWYRQAPGKERELVAAIRYSGGSKYYADSVKGRFTISRDNAKNTVYLQMNSLKPEDTAVYYCAKAYRAAPRESYDYWGQGTQVTVSS”, the “polyreactivity (PSR sort gate)” value was “high polyreactivity”.

For “QVQLVESGGGLVQAGGSLRLSCAASGIIFGYYAMAWYRQAPGTERELVAAITSGASTDYADSVKGRFTISRDNAKNNVYLQMNSLKPEDTAVYYCNADTSASTYTFPFDYWGQGTQVTVSS”, the “polyreactivity (PSR sort gate)” value is reported as “low polyreactivity”.

Regarding “QVQLVESGGGLVQAGGSLRLSCAASGIIFGYYAMGRYRQAPGKERELVAAITWSGGSTYYADSVKGRFTISRDNAKNTVYLQMNSLKPEDTAVYYCAAGDPTLLNESFDYWGQGTQVTVSS”, the “polyreactivity (PSR sort gate)” value is “low polyreactivity”.

Consider “QVQLVESGGGLVQAGGSLRLSCAASGIIFGYYAMGWKRQAPGKERELVAAIDWTGGNTYYADSVKGRFTSSRDNAKNTVYLQMNSLKPEDTAVYYWAADSNSQEDYWGQGTQVTVSS”, for which the “polyreactivity (PSR sort gate)” value is reported as “low polyreactivity”.

On to “QVQLVESGGGLVQAGGSLRLSCAASGIIFGYYAMGWYRQAPGKERELVAAISRSGGRTYYADSVKGRFTISRDNAKNTVYLQMNSLKPEDTAVYYCATVTNSKRGFDYWGQGTQVTVLS”, for which the “polyreactivity (PSR sort gate)” value is given as “high polyreactivity”.
